Numbered stars: 1 amine (or outer) side, 2 acyl side, 3 side chain; on linkers, the order of the positions; unused ones are H or OH. Square brackets hold non-standard residues; d marks the D form. * marks the point of attachment. CH═CH‑CON(CH2Ph)2 = O=C(/C=C/*)N(Cc1ccccc1)Cc1ccccc1; CH═CH‑CON(CH3)CH2CH2Ph = CN(CCc1ccccc1)C(=O)/C=C/*; AAsp = aza-Asp, O=C(N(CC(=O)[*:3])N[*:1])[*:2]; CH═CH‑COOCH2Ph = O=C(/C=C/*)OCc1ccccc1; CH═CH‑COOEt = CCOC(=O)/C=C/*; Cbz = O=C(OCc1ccccc1)*
T1: Caspase-3 (UniProt P42574)
T1 sequence (looked up): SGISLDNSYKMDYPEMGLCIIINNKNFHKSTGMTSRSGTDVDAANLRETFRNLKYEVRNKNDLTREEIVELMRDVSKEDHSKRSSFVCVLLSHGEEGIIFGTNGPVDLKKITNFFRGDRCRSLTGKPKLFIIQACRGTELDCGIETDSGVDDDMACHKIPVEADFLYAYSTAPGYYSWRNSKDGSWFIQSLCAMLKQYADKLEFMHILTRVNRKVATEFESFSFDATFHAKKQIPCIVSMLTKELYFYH

T2: Caspase-6 (UniProt P55212)
T2 sequence (looked up): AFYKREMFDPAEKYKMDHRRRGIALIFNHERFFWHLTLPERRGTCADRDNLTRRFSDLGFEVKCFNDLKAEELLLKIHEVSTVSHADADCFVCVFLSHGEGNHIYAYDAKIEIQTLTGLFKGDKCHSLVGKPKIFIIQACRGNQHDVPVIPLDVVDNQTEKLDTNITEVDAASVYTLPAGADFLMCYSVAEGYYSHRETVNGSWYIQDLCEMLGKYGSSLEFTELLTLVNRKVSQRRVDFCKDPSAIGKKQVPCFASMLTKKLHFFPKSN

T3: Caspase-10 (UniProt Q92851)
T3 sequence (looked up): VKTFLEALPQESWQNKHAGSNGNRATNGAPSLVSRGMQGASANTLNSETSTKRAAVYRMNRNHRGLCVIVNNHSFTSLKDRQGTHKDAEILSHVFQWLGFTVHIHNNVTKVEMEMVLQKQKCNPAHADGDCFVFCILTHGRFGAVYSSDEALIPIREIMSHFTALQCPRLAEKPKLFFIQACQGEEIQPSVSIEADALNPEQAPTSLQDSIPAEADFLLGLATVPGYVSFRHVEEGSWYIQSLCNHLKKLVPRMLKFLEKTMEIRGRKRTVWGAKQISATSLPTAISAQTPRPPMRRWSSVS

T4: Caspase-2 (UniProt P42575)
T4 sequence (looked up): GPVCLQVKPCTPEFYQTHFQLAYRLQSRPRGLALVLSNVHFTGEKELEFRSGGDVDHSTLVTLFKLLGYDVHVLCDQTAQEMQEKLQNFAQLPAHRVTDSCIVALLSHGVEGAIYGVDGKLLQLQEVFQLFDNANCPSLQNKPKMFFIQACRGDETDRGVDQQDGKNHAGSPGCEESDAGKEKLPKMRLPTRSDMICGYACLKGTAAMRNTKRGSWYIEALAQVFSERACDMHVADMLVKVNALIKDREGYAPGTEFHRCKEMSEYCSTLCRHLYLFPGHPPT

T5: Caspase-7 (UniProt P55210)
T5 sequence (looked up): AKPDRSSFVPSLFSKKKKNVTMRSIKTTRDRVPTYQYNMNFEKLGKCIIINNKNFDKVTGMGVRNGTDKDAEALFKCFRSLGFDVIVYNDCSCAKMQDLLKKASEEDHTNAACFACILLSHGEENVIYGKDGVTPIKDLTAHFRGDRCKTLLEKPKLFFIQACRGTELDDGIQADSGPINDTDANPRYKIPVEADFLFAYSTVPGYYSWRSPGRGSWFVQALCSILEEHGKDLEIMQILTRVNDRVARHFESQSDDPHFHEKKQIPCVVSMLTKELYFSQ

B1: Cbz-Ile-Glu-Thr-AAsp-CH═CH-CON(CH2Ph)2 (peptide)
peptide: Cbz-IET[AAsp]-{CH═CH‑CON(CH2Ph)2}
SMILES: CC[C@H](C)[C@H](NC(=O)OCc1ccccc1)C(=O)N[C@@H](CCC(=O)O)C(=O)N[C@H](C(=O)NN(CC(=O)O)C(=O)/C=C/C(=O)N(Cc1ccccc1)Cc1ccccc1)[C@@H](C)O
B2: Cbz-Ile-Glu-Thr-AAsp-CH═CH-CONHCH2Ph (peptide)
peptide: Cbz-IET[AAsp]-{CH═CH‑CONHCH2Ph}
B3: Cbz-Ile-Glu-Thr-AAsp-CH═CH-CONHPh (peptide)
peptide: Cbz-IET[AAsp]-{CH═CH‑CONHPh}
B4: Cbz-Ile-Glu-Thr-AAsp-CH═CH-CONHCH2CH2Ph (peptide)
peptide: Cbz-IET[AAsp]-{CH═CH‑CONHCH2CH2Ph}
B5: Cbz-Ile-Glu-Thr-AAsp-CH═CH-CON(CH3)CH2CH2Ph (peptide)
peptide: Cbz-IET[AAsp]-{CH═CH‑CON(CH3)CH2CH2Ph}
SMILES: CC[C@H](C)[C@H](NC(=O)OCc1ccccc1)C(=O)N[C@@H](CCC(=O)O)C(=O)N[C@H](C(=O)NN(CC(=O)O)C(=O)/C=C/C(=O)N(C)CCc1ccccc1)[C@@H](C)O
B6: Cbz-Ile-Glu-Thr-AAsp-CH═CH-COOEt (peptide)
peptide: Cbz-IET[AAsp]-{CH═CH‑COOEt}
SMILES: CCOC(=O)/C=C/C(=O)N(CC(=O)O)NC(=O)[C@@H](NC(=O)[C@H](CCC(=O)O)NC(=O)[C@@H](NC(=O)OCc1ccccc1)[C@@H](C)CC)[C@@H](C)O
B7: Cbz-Ile-Glu-Thr-AAsp-CH═CH-COOCH2Ph (peptide)
peptide: Cbz-IET[AAsp]-{CH═CH‑COOCH2Ph}
SMILES: CC[C@H](C)[C@H](NC(=O)OCc1ccccc1)C(=O)N[C@@H](CCC(=O)O)C(=O)N[C@H](C(=O)NN(CC(=O)O)C(=O)/C=C/C(=O)OCc1ccccc1)[C@@H](C)O

These binders were tested against Caspase-9 (UniProt P55211) (assay: cell-based or functional assay).
Sequence of Caspase-9 (P55211 whole entry): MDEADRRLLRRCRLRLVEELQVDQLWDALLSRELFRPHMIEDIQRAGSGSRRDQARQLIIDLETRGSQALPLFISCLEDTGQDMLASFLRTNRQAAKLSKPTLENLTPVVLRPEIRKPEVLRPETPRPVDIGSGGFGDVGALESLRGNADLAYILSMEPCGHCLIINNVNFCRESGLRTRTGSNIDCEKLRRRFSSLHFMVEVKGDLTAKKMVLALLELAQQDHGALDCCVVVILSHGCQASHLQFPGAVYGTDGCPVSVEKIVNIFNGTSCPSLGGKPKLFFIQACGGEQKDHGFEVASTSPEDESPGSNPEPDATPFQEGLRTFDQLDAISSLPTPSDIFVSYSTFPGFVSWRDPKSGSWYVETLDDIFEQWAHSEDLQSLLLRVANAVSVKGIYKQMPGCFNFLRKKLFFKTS

k2	Binder
1930 M⁻¹ s⁻¹	B1
440 M⁻¹ s⁻¹	B2
940 M⁻¹ s⁻¹	B3
615 M⁻¹ s⁻¹	B4
760 M⁻¹ s⁻¹	B5

These binders were tested against T1, Caspase-3 (assay: cell-based or functional assay).

k2	Binder
6740 M⁻¹ s⁻¹	B6
2300 M⁻¹ s⁻¹	B7
9570 M⁻¹ s⁻¹	B1
2250 M⁻¹ s⁻¹	B2
7030 M⁻¹ s⁻¹	B3
4750 M⁻¹ s⁻¹	B4
5480 M⁻¹ s⁻¹	B5

The binders below were run against T2, Caspase-6 (assay: cell-based or functional assay).

k2	Binder
88700 M⁻¹ s⁻¹	B6
23400 M⁻¹ s⁻¹	B7
83900 M⁻¹ s⁻¹	B1
16800 M⁻¹ s⁻¹	B2
99200 M⁻¹ s⁻¹	B3
18700 M⁻¹ s⁻¹	B4

The binders below were run against T3, Caspase-10 (assay: cell-based or functional assay).

k2	Binder
6900 M⁻¹ s⁻¹	B6
15200 M⁻¹ s⁻¹	B7
7930 M⁻¹ s⁻¹	B1
503 M⁻¹ s⁻¹	B2
9210 M⁻¹ s⁻¹	B3
8290 M⁻¹ s⁻¹	B4
8770 M⁻¹ s⁻¹	B5

The binders below were run against T4, Caspase-2 (assay: cell-based or functional assay).

k2	Binder
300 M⁻¹ s⁻¹	B6
110 M⁻¹ s⁻¹	B7
76 M⁻¹ s⁻¹	B1
15 M⁻¹ s⁻¹	B2
365 M⁻¹ s⁻¹	B3
30 M⁻¹ s⁻¹	B4
38 M⁻¹ s⁻¹	B5

Each binder was assayed against Caspase-8 (UniProt Q14790) (assay: cell-based or functional assay).
Sequence of Caspase-8 (Q14790 217-479 limits assumed): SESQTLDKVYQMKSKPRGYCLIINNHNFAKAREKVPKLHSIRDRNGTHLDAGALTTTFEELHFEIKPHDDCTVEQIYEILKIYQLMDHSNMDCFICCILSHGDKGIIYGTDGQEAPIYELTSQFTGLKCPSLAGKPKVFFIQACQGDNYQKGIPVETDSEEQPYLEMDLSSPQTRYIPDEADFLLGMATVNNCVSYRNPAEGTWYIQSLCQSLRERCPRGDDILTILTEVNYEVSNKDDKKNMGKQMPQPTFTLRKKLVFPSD

k2	Binder
56500 M⁻¹ s⁻¹	B6
148000 M⁻¹ s⁻¹	B7
39500 M⁻¹ s⁻¹	B1
61300 M⁻¹ s⁻¹	B2
245000 M⁻¹ s⁻¹	B3
71000 M⁻¹ s⁻¹	B4
60500 M⁻¹ s⁻¹	B5

The binders below were run against T5, Caspase-7 (assay: cell-based or functional assay).

k2	Binder
530 M⁻¹ s⁻¹	B6
660 M⁻¹ s⁻¹	B7
1140 M⁻¹ s⁻¹	B1
100 M⁻¹ s⁻¹	B2
920 M⁻¹ s⁻¹	B3
440 M⁻¹ s⁻¹	B4
1020 M⁻¹ s⁻¹	B5
